Data from patent US8697366 (SEOUL NATIONAL UNIVERSITY INDUSTRY FOUNDATION, dated 2014).
Where a chain is given by its changes, count along the chain named. Names and notes keep the numbering of the source. Each block holds one binder with its values, some of them ahead of it.

Experiments:
β-catenin [1] = target: T1, β-catenin (UniProt P35222 1-781); assay: anti-Flag M2 affinity purification from HEK293 extracts, LC-MS/MS and immunoblot of eluates
T1 sequence (looked up): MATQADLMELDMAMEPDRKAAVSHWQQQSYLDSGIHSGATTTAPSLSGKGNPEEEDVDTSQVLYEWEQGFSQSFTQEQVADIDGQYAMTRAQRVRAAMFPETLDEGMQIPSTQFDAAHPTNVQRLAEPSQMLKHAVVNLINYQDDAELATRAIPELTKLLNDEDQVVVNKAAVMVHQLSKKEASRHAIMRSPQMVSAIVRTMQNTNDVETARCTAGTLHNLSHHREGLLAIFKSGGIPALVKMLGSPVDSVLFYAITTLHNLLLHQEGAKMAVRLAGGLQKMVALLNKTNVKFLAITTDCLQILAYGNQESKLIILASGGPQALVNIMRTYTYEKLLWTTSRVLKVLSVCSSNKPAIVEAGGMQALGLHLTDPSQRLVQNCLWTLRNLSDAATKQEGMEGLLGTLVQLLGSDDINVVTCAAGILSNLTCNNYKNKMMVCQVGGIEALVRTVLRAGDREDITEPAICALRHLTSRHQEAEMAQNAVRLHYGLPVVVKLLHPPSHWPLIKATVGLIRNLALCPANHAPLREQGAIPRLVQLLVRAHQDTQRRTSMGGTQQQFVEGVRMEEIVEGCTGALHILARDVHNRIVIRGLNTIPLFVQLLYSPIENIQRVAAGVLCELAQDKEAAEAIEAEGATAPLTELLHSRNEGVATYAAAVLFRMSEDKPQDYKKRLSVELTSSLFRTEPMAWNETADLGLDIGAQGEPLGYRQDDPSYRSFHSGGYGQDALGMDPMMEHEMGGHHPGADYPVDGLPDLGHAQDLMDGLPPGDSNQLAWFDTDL
Procedure: FIG. 1. Purification of RORα-containing complex and identification of β-catenin as a binding partner (A) RORα-containing complex was purified from extracts obtained from HEK293 cells stably expressing Flag-tagged RORα. As a negative control, a mock purification from HEK293 cells stably expressing an empty vector was performed. The bound proteins were resolved by SDS-PAGE and prepared for LC-MS/MS analysis. […] (C) β-catenin and GRIP1 were detected from the elutes by immunoblot analysis. (D) Coimmunoprecipitation of endogenous RORα with β-catenin in HEK293 cells. (E) Ni+-NTA-agarose pulldown assay was performed with plasmids expressing each GFP-tagged β-catenin deletion construct and HisMax-RORα. (F) Illustration of the structure of various β-catenin deletion constructs and binding to RORα.
Purification of RORα-Containing Complex and Identification of β-Catenin as a Binding Partner To investigate the as-yet-unidentified functional modules of RORα, we used a Flag epitope-tag strategy to purify RORα-containing complexes. We generated cell lines that stably express Flag-tagged RORα, and incubated the extracts in anti-Flag M2 affinity gel. After washing with buffer containing increasing salt concentrations of up to 500 mM, the proteins retained on the affinity chromatography column were eluted with buffer containing Flag peptide. […]

PKCβ2 = PKCβ2 (UniProt P05771-2 1-673); assay: in vivo coimmunoprecipitation
PKCε = target: T2, PKCε (UniProt Q02156 1-737); assay: in vivo coimmunoprecipitation
T2 sequence (looked up): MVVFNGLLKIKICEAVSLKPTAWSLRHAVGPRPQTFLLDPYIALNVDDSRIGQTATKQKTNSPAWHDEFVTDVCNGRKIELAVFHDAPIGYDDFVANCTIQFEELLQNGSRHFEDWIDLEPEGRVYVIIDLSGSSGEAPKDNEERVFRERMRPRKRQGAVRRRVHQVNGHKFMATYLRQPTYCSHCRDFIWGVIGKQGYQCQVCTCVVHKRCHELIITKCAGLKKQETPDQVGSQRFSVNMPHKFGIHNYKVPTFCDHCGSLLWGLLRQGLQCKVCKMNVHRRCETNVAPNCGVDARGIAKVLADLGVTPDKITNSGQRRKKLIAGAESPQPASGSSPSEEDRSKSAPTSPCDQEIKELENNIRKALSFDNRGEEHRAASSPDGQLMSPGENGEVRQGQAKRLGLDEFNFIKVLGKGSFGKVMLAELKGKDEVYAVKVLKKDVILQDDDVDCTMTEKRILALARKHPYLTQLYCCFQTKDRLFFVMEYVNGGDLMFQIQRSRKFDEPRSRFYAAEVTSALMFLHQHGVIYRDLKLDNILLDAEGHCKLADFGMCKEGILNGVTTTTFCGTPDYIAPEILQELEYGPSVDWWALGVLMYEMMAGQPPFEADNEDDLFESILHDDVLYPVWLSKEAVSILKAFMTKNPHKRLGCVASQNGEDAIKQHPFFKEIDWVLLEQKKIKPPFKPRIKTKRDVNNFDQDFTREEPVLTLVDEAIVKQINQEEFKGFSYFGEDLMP

PKCδ = PKCδ (UniProt Q05655 1-676); assay: in vivo coimmunoprecipitation
PKCη = PKCη (UniProt P24723 1-683); assay: in vivo coimmunoprecipitation
β-catenin [2] = target: T1, β-catenin; assay: co-IP with anti-Flag antibody from HCT116 cells, immunoblot for β-catenin
Procedure: FIG. 4. PKCα-dependent phosphorylation of RORα is crucial for downregulation of Wnt/β-catenin target genes (A) The specificity of the antibody raised against phosphorylated RORαS35 peptide (SEQ ID NO:18) was assessed by dot blot analysis. (B) Treatment of TPA increased phophorylated RORα on S35 site as assessed by immunoprecipitation with anti-phospho-RORαS35 antibody. […] (D) Treatment of Go6976, a PKCα inhibitor, abolished TPA-dependent phosphorylation of RORα as assessed by immonoblotting with anti-phospho-RORαS35 antibody. (E) HCT116 cells were transfected with Flag-RORα WT, S35D, or S35A, and the cell extracts were immunoprecipitated with anti-Flag antibody followed by immunoblotting against anti-β-catenin antibody. (F) Coimmunoprecipitation assay of β-catenin with either RORαWT or S35A in HCT116 cells after treatment with TPA in the absence or presence of Go6976. (G) ChIP analysis on the cyclin D1 promoter after transfection with Flag-RORαWT, S35A, or S35D in HCT116 cells. (H) ChIP analysis on the cyclin D1 promoter in HCT116 cells after TPA treatment for indicated time. […] (J) Real-time quantitative RT-PCR analysis of the cyclin D1 transcript in HCT116 cells in the presence of TPA for indicated time. (K) Knockdown effect of siRNA against RORα or PKCα was assessed in the expression of the cyclin D1 transcript in HCT116 cells. […]

Chain of PKCδ (Q05655 whole entry, stated change not applied): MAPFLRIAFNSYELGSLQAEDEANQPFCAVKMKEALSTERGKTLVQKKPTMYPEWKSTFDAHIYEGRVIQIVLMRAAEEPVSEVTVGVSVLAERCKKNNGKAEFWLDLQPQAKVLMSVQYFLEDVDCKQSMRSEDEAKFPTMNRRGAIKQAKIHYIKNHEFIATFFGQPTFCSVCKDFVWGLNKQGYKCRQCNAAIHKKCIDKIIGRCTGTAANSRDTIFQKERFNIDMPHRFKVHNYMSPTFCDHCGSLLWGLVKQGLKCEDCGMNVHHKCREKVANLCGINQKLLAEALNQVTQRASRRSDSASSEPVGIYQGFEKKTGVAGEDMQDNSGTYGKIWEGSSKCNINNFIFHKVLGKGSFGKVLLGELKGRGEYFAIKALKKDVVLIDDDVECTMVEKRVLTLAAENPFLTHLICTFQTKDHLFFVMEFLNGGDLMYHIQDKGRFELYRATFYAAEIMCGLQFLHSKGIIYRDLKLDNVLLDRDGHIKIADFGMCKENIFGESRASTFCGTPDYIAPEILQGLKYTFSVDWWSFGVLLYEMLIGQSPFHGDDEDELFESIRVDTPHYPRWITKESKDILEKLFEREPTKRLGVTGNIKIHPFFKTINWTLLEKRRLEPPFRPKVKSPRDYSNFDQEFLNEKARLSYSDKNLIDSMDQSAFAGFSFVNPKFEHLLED
Chain of PKCβ2 (P05771 other isoform, or with tags, fused parts or gaps): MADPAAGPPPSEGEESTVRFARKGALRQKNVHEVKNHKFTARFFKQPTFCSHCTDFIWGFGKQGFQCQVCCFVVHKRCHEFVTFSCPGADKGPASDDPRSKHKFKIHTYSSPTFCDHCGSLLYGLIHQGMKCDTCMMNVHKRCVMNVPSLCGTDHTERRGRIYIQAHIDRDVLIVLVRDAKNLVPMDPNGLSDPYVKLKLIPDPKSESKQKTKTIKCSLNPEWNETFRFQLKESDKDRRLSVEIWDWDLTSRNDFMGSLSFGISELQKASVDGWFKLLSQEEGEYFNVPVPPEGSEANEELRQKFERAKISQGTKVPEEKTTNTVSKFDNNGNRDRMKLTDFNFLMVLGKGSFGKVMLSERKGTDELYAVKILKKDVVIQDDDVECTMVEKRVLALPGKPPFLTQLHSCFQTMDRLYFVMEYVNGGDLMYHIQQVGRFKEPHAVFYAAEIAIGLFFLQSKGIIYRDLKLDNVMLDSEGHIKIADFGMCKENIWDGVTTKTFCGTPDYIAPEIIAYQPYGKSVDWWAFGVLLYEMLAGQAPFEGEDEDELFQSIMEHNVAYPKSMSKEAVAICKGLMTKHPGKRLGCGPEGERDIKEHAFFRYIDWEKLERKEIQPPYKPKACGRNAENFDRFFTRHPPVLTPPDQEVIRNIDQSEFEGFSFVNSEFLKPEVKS
Chain of PKCη (P24723 whole entry): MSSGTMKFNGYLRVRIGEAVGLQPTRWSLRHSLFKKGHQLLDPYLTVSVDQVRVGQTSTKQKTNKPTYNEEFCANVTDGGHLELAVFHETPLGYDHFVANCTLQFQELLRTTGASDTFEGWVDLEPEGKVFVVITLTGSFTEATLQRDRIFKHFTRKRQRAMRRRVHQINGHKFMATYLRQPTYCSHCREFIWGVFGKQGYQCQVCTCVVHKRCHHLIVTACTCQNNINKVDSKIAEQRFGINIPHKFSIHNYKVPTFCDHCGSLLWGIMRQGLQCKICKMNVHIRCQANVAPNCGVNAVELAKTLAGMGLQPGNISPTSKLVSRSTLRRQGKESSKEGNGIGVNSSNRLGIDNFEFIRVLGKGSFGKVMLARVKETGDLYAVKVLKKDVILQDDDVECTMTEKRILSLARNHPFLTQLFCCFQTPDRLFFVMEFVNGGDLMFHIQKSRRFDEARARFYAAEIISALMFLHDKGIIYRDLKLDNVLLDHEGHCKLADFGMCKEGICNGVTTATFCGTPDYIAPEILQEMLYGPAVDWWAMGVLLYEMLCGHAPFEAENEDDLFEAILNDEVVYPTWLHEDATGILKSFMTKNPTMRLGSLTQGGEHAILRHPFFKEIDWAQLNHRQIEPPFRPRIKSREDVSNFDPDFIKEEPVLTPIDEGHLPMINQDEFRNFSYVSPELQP

binding result (β-catenin [1]): binds
B1: Flag-tagged RORα (receptor, UniProt P35398 1-523, looked up)
chain: MESAPAAPDPAASEPGSSGADAAAGSRETPLNQESARKSEPPAPVRRQSYSSTSRGISVTKKTHTSQIEIIPCKICGDKSSGIHYGVITCEGCKGFFRRSQQSNATYSCPRQKNCLIDRTSRNRCQHCRLQKCLAVGMSRDAVKFGRMSKKQRDSLYAEVQKHRMQQQQRDHQQQPGEAEPLTPTYNISANGLTELHDDLSNYIDGHTPEGSKADSAVSSFYLDIQPSPDQSGLDINGIKPEPICDYTPASGFFPYCSFTNGETSPTVSMAELEHLAQNISKSHLETCQYLREELQQITWQTFLQEEIENYQNKQREVMWQLCAIKITEAIQYVVEFAKRIDGFMELCQNDQIVLLKAGSLEVVFIRMCRAFDSQNNTVYFDGKYASPDVFKSLGCEDFISFVFEFGKSLCSMHLTEDEIALFSAFVLMSADRSWLQEKVKIEKLQQKIQLALQHVLQKNHREDGILTKLICKVSTLRALCGRHTEKLMAFKAIYPDIVRLHFPPLYKELFTSEFEPAMQIDG
notes: also called Flag-RORα; Flag-RORα WT; not shown: Flag tag

binding result (PKCβ2): no binding
binding result (PKCε): no binding
binding result (PKCδ): no binding
binding result (PKCη): no binding
B2: RORα (receptor, UniProt P35398 1-523, looked up)
chain: B1 chain
notes: also called retinoic acid-related orphan nuclear receptor (ROR)α; endogenous RORα

binding result (β-catenin [2]): binds
B3: Flag-RORα S35D (receptor, UniProt P35398 1-523, looked up)
chain: B1 chain with S35D
notes: not shown: Flag tag

binding result (β-catenin [2]): binds
B4: Flag-RORα DBD mutant (C90A) (receptor, UniProt P35398 1-523, looked up)
chain: B1 chain with C90A
notes: also called RORαC90A; not shown: Flag tag
